{
  "source": "paper PMC8325564",
  "substrate": "Nc1nc2c(ncn2[C@@H]2O[C@H](COP(=O)(O)OP(=O)(O)OP(=O)(O)O)[C@@H](O)[C@H]2O)c(=O)[nH]1",
  "test": "coupled enzymatic assay of AK3 activity",
  "type": "biochemical, human",
  "settings": "other: GTP as varied substrate, 300 μM AMP, 2 mM MgCl2",
  "data": [
    {"protein": "human AK3 (Homo sapiens) (protein) MGASARLLRAVIMGAPGSGKGTVSSRITTHFELKHLSSGDLLRDNMLRGTEIGVLAKAFIDQGKLIPDDVMTRLALHELKNLTQYSWLLDGFPRTLPQAEALDRAYQIDTVINLNVPFEVIKQRLTARWIHPASGRVYNIEFNPPKTVGIDDLTGEPLIQREDDKPETVIKRLKAYEDQTKPVLEYYQKKGVLETFSGTETNKIWPYVYAFLQTKVPQRSQKASVTP", "values": [
      {"measurement": "Km", "result": "10 ± 1.5", "unit": "µM"},
      {"measurement": "kcat/Km", "result": "5.7e+06 ± 900000", "unit": "M⁻¹ s⁻¹"}
    ]}
  ]
}
